From paper PMC6037025

Target: CHIP (UniProt Q9UNE7)
Experiment: co-IP with anti-MYC-agarose, Western blot
Conditions: reference: Flag-IRS4 wild type; sites S859

binding against the reference: lost
Substance: IRS4 (from UniProt O14654) Flag-IRS4 S859A
